Results published in patent publication US20200317753A1 (LIFEARC, published 2020).
Where a chain is given by its changes, count along the chain named. Read-outs that look alike come from different tables or passages of the source.

Columns and labels:
[1] = target: T1, EV71-VLP (virus-like particle) (Enterovirus 71); experiment: binding ELISA on EV71-VLP, absorbance at 450 nm
T1 construct: Particle of several capsid proteins

[2] = target: T2, SP70 peptide epitope of the EV71 VP1 capsid protein (Enterovirus 71); experiment: binding ELISA on SP70 peptide, absorbance at 450 nm
T2 construct: 15-amino acid peptide; residues 208-222 counted on VP1
T2 peptide: YPTFGEHKQEKDLEY

[3] = target: T1, EV71-VLP (virus-like particle); experiment: Bio-Layer Interferometry, steady state plot (apparent KD)
[4] = target: T2, SP70 peptide epitope of the EV71 VP1 …; experiment: isothermal titration calorimetry, observed KA
Description: (§1) KD can be calculated using Gibbs free energy, enthalpy and entropy: ΔG=ΔH−TΔS and ΔG=RT In KD.

[5] = target: T2, SP70 peptide epitope of the EV71 VP1 …; experiment: isothermal titration calorimetry, observed KD
Description: as §1

[6] = target: T2, SP70 peptide epitope of the EV71 VP1 …; experiment: isothermal titration calorimetry
[7] = target: T2, SP70 peptide epitope of the EV71 VP1 …; experiment: binding ELISA on SP70 peptide, OD 650 nm
Protocol: (§2) Serial dilutions of antibody variants (starting from ˜100 −g/ml) were added to immobilised EV71-VLP or the SP70 peptide epitope, shaken for one hour at room temperature and washed with PBS-T. Anti-human kappa chain HRP was added and the incubation and washing steps were repeated. TMB/K-Blue substrate was incubated with the reaction for 5-10 minutes at room temperature before the reaction was stopped with H₂SO₄ RED STOP. The optical density was read at 450/650 nm.

[8] = target: T1, EV71-VLP (virus-like particle); experiment: binding ELISA on EV71-VLP, absorbance at 450 nm; remark: listed apart in the source
[9] = target: T2, SP70 peptide epitope of the EV71 VP1 …; experiment: binding ELISA on SP70 peptide, absorbance at 450 nm
[10] = target: T2, SP70 peptide epitope of the EV71 VP1 …; experiment: isothermal titration calorimetry (observed KD); the text paragraph 208 prints 17.1 nM
[11] = target: T2, SP70 peptide epitope of the EV71 VP1 …; experiment: binding ELISA on SP70 peptide, OD 650 nm [upper panel]
Protocol: as §2

[12] = target: T2, SP70 peptide epitope of the EV71 VP1 …; experiment: binding ELISA on SP70 peptide, OD 650 nm
Protocol: as §2

[13] = target: T2, SP70 peptide epitope of the EV71 VP1 …; experiment: binding ELISA on SP70 peptide, antibody not incubated, OD 650 nm [top panel]

B1: murine D5 antibody (antibody, V domains shown)
VH: EVQLQQSGAELVKPGASVKLSCTASGFNIKDTYIHWVKQRPEQGLEWIGKIDPANGNTKYDPKFQDKATITADTSSNTAYLQLSSLTSEDTAVYYCANSNYWFDFDYWGQGTTLTVSS
VL: DVLMTQTPLSLPVSLGDQASISCRSSQSIVHSNGNTYLEWYLQKPGQSPKLLIYKVSNRFSGVPDRFSGSGSGTDFTLKISRVEADDVGVYYCYQGSHVPYTFGGGTKLEIK
notes: Mouse monoclonal IgG1 (label mD5 IgG1); also called mD5; mouse D5
For B1, the EC50 [1] was 12.7 nM, the EC50 [2] was 0.3 nM and the Kd [3] was 1.8 nM.

B2: chimeric D5 antibody (antibody, V domains shown)
VH: B1 VH
VL: B1 VL
notes: Human constant regions and murine D5 variable regions, expressed in Expi293 cells; also called chD5; cD5 CHCK
Work on B2 yielded a Ka [4] of 5.66e+07 M⁻¹, a Kd [5] of 17.1 nM and a ΔH [6] of -53.6 kJ/mol. For the same binder, the ΔS [6] was -7.63 cal/mol/deg, the EC50 [7] was 1.4 nM and the EC50 [8] was 1.6 nM. It also gave an EC50 [9] of 6.7 nM, a Kd [3] of 0.2 nM and a Kd [10] of 17.7 nM.

B3: hEV71 HAKA (antibody, V domains shown)
VH: QVQLVQSGAEVKKPGASVKVSCKASGYTFTDTYIHWVRQAPGQRLEWIGKIDPANGNTKYDPKFQDRVTITRDTSASTAYMELSSLRSEDTAVYYCASSNYWFDFDYWGQGTLVTVSS
VL: B1 VL with V2I, L3V, T7S, S14T, L15P, D17E, Q18P, K50Q, D86E, L109V
notes: Variable domains only; cloned into pHuG1 and pHuK (human IgG / kappa) vectors, expressed in Expi293 cells
B3: binds [11].

B4: hEV71 HQKA (antibody, V domains shown)
VH: QVQLVQSGAEVKKPGASVKVSCTASGFNIKDTYIHWVKQAPGQRLEWIGKIDPANGNTKYDPKFQDKATITADTSANTAYMELSSLRSEDTAVYYCANSNYWFDFDYWGQGTLVTVSS
VL: B1 VL with V2I, L3V, T7S, S14T, L15P, D17E, Q18P, K50Q, D86E, L109V
notes: Variable domains only
B4 gave an EC50 [7] of 1.09 nM.

B5: hEV71 HBKA (antibody, V domains shown)
VH: B4 VH with T23K, K38R, N77S
VL: B1 VL with V2I, L3V, T7S, S14T, L15P, D17E, Q18P, K50Q, D86E, L109V
notes: Variable domains only; pHuG1 / pHuK vectors
In the case of B5, the EC50 [7] is reported as 1.62 nM.

B6: hEV71 HJKA (antibody, V domains shown)
VH: B3 VH with S98N
VL: B1 VL with V2I, L3V, T7S, S14T, L15P, D17E, Q18P, K50Q, D86E, L109V
notes: as for B5
B6: binds [12].

B7: hEV71 HNKA (antibody, V domains shown)
VH: B4 VH with T23K, N77S
VL: B1 VL with V2I, L3V, T7S, S14T, L15P, D17E, Q18P, K50Q, D86E, L109V
notes: Variable domains only
With B7 the EC50 [7] was 1.35 nM.

B8: hEV71 HCKA (antibody, V domains shown)
VH: B3 VH with Y27F
VL: B1 VL with V2I, L3V, T7S, S14T, L15P, D17E, Q18P, K50Q, D86E, L109V
notes: as for B5
B8: binds [12].

B9: hEV71 HEKA (antibody, V domains shown)
VH: B3 VH with F29I
VL: B1 VL with V2I, L3V, T7S, S14T, L15P, D17E, Q18P, K50Q, D86E, L109V
notes: Named only within the range hEV71 HCKA to hEV71 HJKA; Variable domains only
B9: binds [12].

B10: hEV71 HPKA (antibody, V domains shown)
VH: B3 VH with R67K, S98N
VL: B1 VL with V2I, L3V, T7S, S14T, L15P, D17E, Q18P, K50Q, D86E, L109V
notes: Variable domains only
With B10 the EC50 [7] was 67.7 nM.

B11: hEV71 HIKA (antibody, V domains shown)
VH: B3 VH with R72A
VL: B1 VL with V2I, L3V, T7S, S14T, L15P, D17E, Q18P, K50Q, D86E, L109V
notes: as for B9
B11: binds [12].

B12: hEV71 HFKA (antibody, V domains shown)
VH: B3 VH with T30K
VL: B1 VL with V2I, L3V, T7S, S14T, L15P, D17E, Q18P, K50Q, D86E, L109V
notes: as for B9
B12: binds [12].

B13: hEV71 HAKB (antibody, V domains shown)
VH: B3 VH
VL: B1 VL with T7S, S14T, L15P, D17E, Q18P, K50Q, D86E, L109V
notes: as for B5
B13: binds [11].

B14: hEV71 HMKA (antibody, V domains shown)
VH: B4 VH with K38R
VL: B1 VL with V2I, L3V, T7S, S14T, L15P, D17E, Q18P, K50Q, D86E, L109V
notes: Variable domains only; pHuG1 / pHuK vectors, Expi293 cells; behaves as an IgG monomer; also called huEV71 HMKA; EVM00
Work on B14 yielded a Ka [4] of 2.62e+07 M⁻¹, a Kd [5] of 38.2 nM and a ΔH [6] of -69 kJ/mol. For the same binder, the ΔS [6] was -21.4 cal/mol/deg, the EC50 [7] was 1.15 nM and the “EC50 (read off the curve)” value [13] was ~0.8 nM.

B15: hEV71 HHKA (antibody, V domains shown)
VH: B3 VH with V68A
VL: B1 VL with V2I, L3V, T7S, S14T, L15P, D17E, Q18P, K50Q, D86E, L109V
notes: as for B9
B15: binds [12].

B16: hEV71 HDKA (antibody, V domains shown)
VH: B3 VH with T28N
VL: B1 VL with V2I, L3V, T7S, S14T, L15P, D17E, Q18P, K50Q, D86E, L109V
notes: Variable domains only
B16: binds [12].

B17: hEV71 HGKA (antibody, V domains shown)
VH: B3 VH with R67K
VL: B1 VL with V2I, L3V, T7S, S14T, L15P, D17E, Q18P, K50Q, D86E, L109V
notes: as for B9
B17: binds [12].
